Measurements as given in US20030191058A1 (WALTER AND ELIZA INSTITUTE OF MEDICAL RESEARCH, published 2003).
Square brackets hold non-standard residues; d marks the D form. * marks the point of attachment. Biotin = O=C1N[C@H]2[C@H](CS[C@H]2CCCCC(=O)*)N1; pY = N[C@@H](Cc1ccc(OP(=O)(O)O)cc1)C(=O)O

T1: recombinant murine SOCS-3, hexahistidine tagged (expressed from pET15b in E. coli, refolded) (murine, UniProt O35718 1-225)
T1 construct: also called recombinant SOCS-3; suppressor of cytokine signalling 3; not shown: hexahistidine tag from vector pET15b (NdeI/BamHI cloning)
T1 sequence (looked up): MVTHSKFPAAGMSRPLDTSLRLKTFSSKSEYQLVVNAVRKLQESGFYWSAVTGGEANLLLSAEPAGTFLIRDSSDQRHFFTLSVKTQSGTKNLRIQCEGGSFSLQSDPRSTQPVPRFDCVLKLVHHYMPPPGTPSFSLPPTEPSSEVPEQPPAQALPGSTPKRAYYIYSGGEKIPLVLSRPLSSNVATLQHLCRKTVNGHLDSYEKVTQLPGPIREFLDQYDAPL


What was measured:
[1] = biological target: recombinant murine SOCS-3, hexahistidine tagged (expressed from pET15b in E. coli, refolded) (murine) (UniProt O35718); assay: SPR competition assay, soluble peptide against immobilised biotin-gp130(750-764) phosphopeptide
[2] = biological target: recombinant murine SOCS-3, hexahistidine tagged (expressed from pET15b in E. coli, refolded) (murine) (UniProt O35718); assay: SPR competition assay, reference gp130(750-764) phosphopeptide
[3] = biological target: recombinant murine SOCS-3, hexahistidine tagged (expressed from pET15b in E. coli, refolded) (murine) (UniProt O35718); assay: SPR competition assay, soluble peptide against immobilised biotin-gp130(750-764) phosphopeptide; remark: listed apart in the source
[4] = biological target: EPOR/gp130 chimeric receptor (erythropoietin receptor extracellular domain and gp130 cytoplasmic domain); assay: cell-based or functional assay
[5] = biological target: EPOR/gp130Y757F chimeric receptor (EPO receptor extracellular domain and gp130 cytoplasmic domain with tyrosine 757 mutated to phenylalanine); assay: cell-based or functional assay
[6] = biological target: recombinant murine SOCS-3, hexahistidine tagged (expressed from pET15b in E. coli, refolded) (murine) (UniProt O35718); assay: SPR competition assay, soluble peptide against immobilised biotin-gp130(750-764) phosphopeptide, ~100 nM SOCS-3
[7] = biological target: T1, recombinant murine SOCS-3, …; assay: pull-down: biotinylated phosphopeptide on streptavidin-agarose, eluate on SDS-PAGE
Description: After washing and elution of bound protein, samples were analyzed by SDS-PAGE.
Biotinylated phosphopeptides were also prepared corresponding to the known tyrosine phosphorylation sites in murine STAT-1 (Y701) and STAT-3 (Y705). […] Following removal of the protein solution, resin was washed twice with 1 mL PBS/0.1% v/v Tween-20, and bound protein eluted with 25 μL of SDS sample buffer containing 10 mM DTT, Samples were analyzed by SDS-PAGE on 12% w/v polyacrylamide gels.

| Molecule | IC50 analogue/IC50 wild-type [2] | IC50 [6] [nM] | further results |
| --- | --- | --- | --- |
| JAK1 activation loop phosphopeptide IETDKE(pY)YTVKDDRD |  |  | IC50 [1]: 230000 nM |
| JAK2 activation loop phosphopeptide LPQDKE(pY)YKVKEPGE |  |  | fold weaker affinity than gp130(750-764) [2]: 10000 fold |
| JAK3 activation loop phosphopeptide LPLGKD(PY)YVVREPGQ |  |  | fold weaker affinity than gp130(750-764) [2]: 1000 fold; IC50 [3]: 110000 nM; IC50 [1]: 140000 nM |
| SOCS-3 expressed in transiently transfected 293T cells (Flag-tagged, detected with anti-Flag antibody) |  |  | 50% inhibition of EPO-induced APRE-luc luciferase activity in 293T cells (amount of SOCS-3 DNA transfected) [4]: 4 ng; 50% inhibition of EPO-induced APRE-luc luciferase activity in 293T cells (amount of SOCS-3 DNA transfected) [5]: 54 ng |
| gp130(750-764) phosphopeptide analogue STASTVE(pY)ATVVHSG | 0.65 | 72 |  |
| gp130(750-764) phosphopeptide analogue STASTVE(pY)STAVHSG | 31 | 3400 |  |
| gp130(750-764) phosphopeptide analogue STASTVE(pY)STVAHSG | 10 | 1100 |  |
| gp130(750-764) phosphopeptide analogue STASTVE(pY)STVVASG | 7 | 770 |  |
| truncated gp130 phosphopeptide Ac(pY)STVVHSG | 87 | 9600 |  |
| truncated gp130 phosphopeptide AcE(pY)STVVHSG | 8.8 | 970 |  |
| truncated gp130 phosphopeptide AcTVE(pY)STVVHSG | 1.1 | 120 |  |
| truncated gp130 phosphopeptide STASTVE(pY)STVV | 10 | 1100 |  |
| truncated gp130 phosphopeptide STASTVE(pY)STVVH | 0.7 | 77 |  |
| truncated gp130 phosphopeptide STASTVE(pY)STVVHS | 0.55 | 61 |  |
| truncated gp130 phosphopeptide analogue AcAE(pY)STVVHSG | 5.3 | 580 |  |
| truncated gp130 phosphopeptide analogue AcVA(pY)STVVHSG | 5 | 550 |  |
| Biotin-FNSKDQM[pY]SDGNFTD-NH2 (SMILES CSCC[C@H](NC(=O)[C@H](CCC(N)=O)NC(=O)[C@H](CC(=O)O)NC(=O)[C@H](CCCCN)NC(=O)[C@H](CO)NC(=O)[C@H](CC(N)=O)NC(=O)[C@H](Cc1ccccc1)NC(=O)CCCC[C@@H]1SC[C@@H]2NC(=O)N[C@@H]21)C(=O)N[C@@H](Cc1ccc(OP(=O)(O)O)cc1)C(=O)N[C@@H](CO)C(=O)N[C@@H](CC(=O)O)C(=O)NCC(=O)N[C@@H](CC(N)=O)C(=O)N[C@@H](Cc1ccccc1)C(=O)N[C@H](C(=O)N[C@@H](CC(=O)O)C(N)=O)[C@@H](C)O) [biotinylated gp130(674-688) phosphopeptide] |  |  | binding result [7]: no binding (tested: 50 µg/mL) |
| Biotin-STVVHSG[pY]RHQVPSV-NH2 (SMILES CC(C)[C@H](NC(=O)[C@H](CO)NC(=O)[C@@H]1CCCN1C(=O)[C@@H](NC(=O)[C@H](CCC(N)=O)NC(=O)[C@H](Cc1c[nH]cn1)NC(=O)[C@H](CCCNC(=N)N)NC(=O)[C@H](Cc1ccc(OP(=O)(O)O)cc1)NC(=O)CNC(=O)[C@H](CO)NC(=O)[C@H](Cc1c[nH]cn1)NC(=O)[C@@H](NC(=O)[C@@H](NC(=O)[C@@H](NC(=O)[C@H](CO)NC(=O)CCCC[C@@H]1SC[C@@H]2NC(=O)N[C@@H]21)[C@@H](C)O)C(C)C)C(C)C)C(C)C)C(N)=O, also called biotinylated gp130(758-772) phosphopeptide; member of the group m25) [pY765 STVVHSG(pY)RHQVPSV gp130 (758-772)] |  |  | binding result [7]: no binding (tested: 50 µg/mL) |
| Biotin-QTVRQGG[pY]MPQ-NH2 (SMILES CSCC[C@H](NC(=O)[C@H](Cc1ccc(OP(=O)(O)O)cc1)NC(=O)CNC(=O)CNC(=O)[C@H](CCC(N)=O)NC(=O)[C@H](CCCNC(=N)N)NC(=O)[C@@H](NC(=O)[C@@H](NC(=O)[C@H](CCC(N)=O)NC(=O)CCCC[C@@H]1SC[C@@H]2NC(=O)N[C@@H]21)[C@@H](C)O)C(C)C)C(=O)N1CCC[C@H]1C(=O)N[C@@H](CCC(N)=O)C(N)=O, also called biotinylated gp130(907-917) phosphopeptide; member of the group m25) [pY914 QTVRQGG(pY)MPQ gp130 (907-917)] |  |  | binding result [7]: no binding (tested: 50 µg/mL) |
